Measurements as given in patent publication US20150299285A1.
Read-outs that look alike come from different tables or passages of the source.

Key:
[1] = biological target: insulin receptor subtype A (human) (UniProt P06213); test: cell-based or functional assay
[2] = biological target: insulin receptor subtype B (human) (UniProt P06213); test: cell-based or functional assay
[3] = biological target: insulin receptor subtype A (human) (UniProt P06213); test: cell-based or functional assay; remark: listed apart in the source
[4] = biological target: insulin receptor subtype B (human) (UniProt P06213); test: cell-based or functional assay; remark: listed apart in the source
[5] = biological target: insulin receptor subtype A (human) (UniProt P06213); test: IR-A Binding, competition with 125I-insulin

EC50, Receptor Phosphorylation [1]: 0.00648 µM | EC50, Receptor Phosphorylation [2]: 0.0322 µM | EC50, IR-A Phosphorylation [3]: 0.0292 µM | EC50, Receptor Phosphorylation [3]: 0.01 µM | EC50, phosphorylation (FIG. 18A) [3]: 0.00224 µM | IC50 (so named in p-1063), Phosphorylation at Insulin Receptor Subtype A [3]: 0.146 µM | EC50, Receptor Phosphorylation [4]: 0.0166 µM | EC50, phosphorylation (FIG. 18B) [4]: 0.0324 µM | IC50 (so named in p-1063), Phosphorylation at Insulin Receptor Subtype B [4]: 0.0197 µM | IC50 [5]: 0.0188 µM
Substance: native IGF-1 (from UniProt P05019 49-118) (ligand)
